In patent publication US6693184B1, “DNA molecules encoding splice variants of the human melanocortin 1 receptor protein” (Merck & Co., Inc., priority 1998, dated 2004):

How the values were obtained:
[1] = tested on: MC-1RB; test: cAMP functional receptor assay in COS-7 cells transfected with MC-1RB expression plasmids; format: cell-based, human; conditions: for approximate rank order of potency in eliciting the cAMP response: COS-7 cells transiently expressing MC-R1B; for rise in intracellular cAMP formation: maximum agonist concentration, compared to background response in sham-transfected COS-7 cells
Method: cAMP Functional Receptor Assay—Receptor-mediated stimulation of cyclic AMP (cAMP) formation was assayed in COS-7 cells transfected with MC-1RB expression plasmids. Cells expressing MC-1RB were dissociated from tissue culture flasks by rinsing with Ca and Mg free phosphate buffered saline (Life Technologies, Gaithersburg, Md.) and detached following 5 min. incubation with enzyme-free dissociation buffer (Specialty Media, Lavellette, N.J.). Cells were collected by centrifugation and resuspended in Earle's Balanced Salt Solution (EBSS) (Life Technologies, Gaithersburg, Md.) with additions of 10 mM HEPES pH 7.5, 5 mM MgCl2, 1 mM glutamine and 1 mg/ml bovine serum albumin. Cells are counted and diluted to 2 to 4×10^6/ml. The phosphodiesterace inhibitor 3-isobutyl-1-methylxanthine was added at a concentration of 0.6 mM. Test peptides were diluted in EBSS with above additions and 10% DMSO; 0.1 vol of compounds added to 0.9 vol of cells. After room temperature incubation for 40 min., cells are lysed by incubation at 100° C. for 5 min. to release accumulated cAMP. cAMP is measured in an aliquot of the cell lysate with the Amersham (Arlington Heights, Ill.) cAMP detection assay (RPA556).
Previous studies (Mountjoy, et al., 1992, Science 257:1248-1251 [see also U.S. Pat. No. 5,532,347]; Chhajlani and Wikberg, 1992, FEBS Letters 309:417-420) has documented that activation of the MC-1RA isoform by melanocortin agonists results in an elevation of intracellular cAMP production through the coupling of G-proteins to activation of membrane-bound adenylate cyclase.

[2] = target: human MC-R1B receptor (splice variant of the human melanocortin-1 receptor, 382 amino acids) (human); test: cell-based or functional assay
[3] = target: human MC-R1B receptor (splice variant of the human melanocortin-1 receptor, 382 amino acids) (human); test: displacement of 200 pM [125I]-NDP-αMSH from crude membranes of COS-7 cells expressing human MC-R1B
[4] = target: human MC-R1B receptor (splice variant of the human melanocortin-1 receptor, 382 amino acids) (human); test: radioligand binding, membranes of COS-7 cells expressing MC-R1B

Molecule | approximate rank order of potency in eliciting the cAMP response [1] | rise in intracellular cAMP formation [1] [fold] | intracellular cAMP formation in COS-7 cells transiently expressing MC-R1B [2] [fold] | IC50 [3] [nM] | other results
MT-II | MT-II>NDP-MSH>SHU-9119>αMSH>βMSH>γMSH | ~3 |  |  | 
MT-II (peptide) |  |  | 3 | 0.2 | 
NDP-αMSH | MT-II>NDP-MSH>SHU-9119>αMSH>βMSH>γMSH | ~3 |  |  | 
NDP-αMSH (unlabelled) (peptide) |  |  | 3 | 0.7 | 
SHU-9119 |  | ~3 |  |  | 
SHU-9119 (peptide) |  |  | 3 | 0.7 | 
[125I]-NDP-αMSH (peptide) |  |  |  |  | specific binding (percent of total binding) (% of total binding) [4]: > 90
αMSH | MT-II>NDP-MSH>SHU-9119>αMSH>βMSH>γMSH | ~3 |  |  | 
βMSH (from UniProt P01189 213-234) (peptide) |  |  | 3 |  | 
βMSH: β-melanocyte stimulating hormone, melanocortin peptide derived from the POMC gene | MT-II>NDP-MSH>SHU-9119>αMSH>βMSH>γMSH | ~3 |  |  | 
γMSH (from UniProt P01189 77-88) (peptide) |  |  | 3 |  | 
SYSMEHFRWGKPV (peptide, UniProt P01189 138-150, looked up) [αMSH] |  |  | 3 | 5 | 
SYSMEHFRWGKPVGKKRRPVKVYPNGAEDESAEAFPLEF (peptide, UniProt P01189 138-176, looked up) [ACTH] |  |  |  | 5 | 
